Reference: patent US20170342155A1 (Amgen, published 2017)

Target: T1, wild-type human CCR7 (pcDNA3.1 Neo-hCCR7, 20100121357) (human, UniProt P32248 25-378)
T1 construct: Expressed on transfected 293T, CHO AM1/D or HEK293T cells; also called huCCR7; CCR7 receptor
T1 sequence: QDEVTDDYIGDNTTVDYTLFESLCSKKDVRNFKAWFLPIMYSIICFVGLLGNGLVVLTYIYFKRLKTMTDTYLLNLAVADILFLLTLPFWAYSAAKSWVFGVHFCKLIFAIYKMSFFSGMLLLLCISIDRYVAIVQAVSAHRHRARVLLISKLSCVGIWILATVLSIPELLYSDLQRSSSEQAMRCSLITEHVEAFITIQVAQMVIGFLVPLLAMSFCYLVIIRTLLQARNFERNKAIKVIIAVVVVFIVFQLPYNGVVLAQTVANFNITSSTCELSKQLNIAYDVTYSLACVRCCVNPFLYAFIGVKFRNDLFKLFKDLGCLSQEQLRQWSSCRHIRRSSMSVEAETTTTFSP
Assay: hybridoma screening on cells expressing human CCR7

B1: antibody 6E1.2 (antibody, human IgG2, lambda, V domains shown)
VH: QGQLVESGGGVVQPGRSLRLSCAASGFTFRSYGMHWVRQAPGKGLEWVAVIWYDGSKKYYADSVKGRFTISRDNSKNTLFLQMNSLRAEDTAVYYCARDGGIAAFLQDNWFDPWGQGTLVTVSS
VL: SYELTQPPSVSVSPGQTASITCSGNKLGDKYASWYHQKPGQSPVLVIYQDNKRPSGIPERFSGSNSGNTATLTISGTQTMDEADYFCQAWDRTVVFGGGTKLTVLG
notes: Human antibody from XenoMouse hybridoma; Light = 26 and heavy = 58 is inferred from the order of the listing
B1: binds.
